Source: patent US20250197889A1

Target: humanized Nme2Cas9 expressed in HEK293T cells from a plasmid (Neisseria meningitidis strain De11444 (also printed De10444))
Test: cell-based or functional assay

How did the fold decrease in genome editing in HEK293T cells at various ratios of Acr to Cas9 plasmid turn out when AcrIIC4Hpa was run?
The fold decrease in genome editing in HEK293T cells at various ratios of Acr to Cas9 plasmid was 4 fold.
